Laboratory results published in US20210147523A1 (TEIJIN PHARMA, published 2021).
Where a chain is given by its changes, count along the chain named.

Assays:
Assay in all cases: flow cytometry
[1] = target: T1, human SPNS2 Q131A mutant (human, UniProt Q8IVW8 1-549)
T1 sequence: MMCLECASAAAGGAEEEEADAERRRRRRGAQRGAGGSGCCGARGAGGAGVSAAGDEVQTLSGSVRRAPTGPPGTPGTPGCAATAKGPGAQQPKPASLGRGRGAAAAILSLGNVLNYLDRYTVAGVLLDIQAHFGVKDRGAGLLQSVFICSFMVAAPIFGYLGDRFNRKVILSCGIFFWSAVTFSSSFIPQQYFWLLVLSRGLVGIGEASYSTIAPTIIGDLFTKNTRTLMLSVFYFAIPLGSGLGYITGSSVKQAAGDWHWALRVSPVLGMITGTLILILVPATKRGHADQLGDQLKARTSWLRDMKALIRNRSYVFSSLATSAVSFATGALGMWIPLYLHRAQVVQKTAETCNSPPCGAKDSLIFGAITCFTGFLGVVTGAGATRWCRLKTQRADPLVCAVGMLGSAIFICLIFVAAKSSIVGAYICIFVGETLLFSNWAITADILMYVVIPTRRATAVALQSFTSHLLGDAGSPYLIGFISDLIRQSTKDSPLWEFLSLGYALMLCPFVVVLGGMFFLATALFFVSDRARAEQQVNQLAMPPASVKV

[2] = target: T2, human SPNS2 G134A mutant (human, UniProt Q8IVW8 1-549)
T2 sequence: T1 sequence with A131Q, G134A

[3] = target: T3, human SPNS2 Q190A mutant (human, UniProt Q8IVW8 1-549)
T3 sequence: T1 sequence with A131Q, Q190A

[4] = target: T4, human SPNS2 I129A mutant (human, UniProt Q8IVW8 1-549)
T4 sequence: T1 sequence with I129A, A131Q

[5] = target: T5, human SPNS2 L196A mutant (human, UniProt Q8IVW8 1-549)
T5 sequence: T1 sequence with A131Q, L196A

B1: 64-0807A (antibody, IgG2b, V domains shown)
VH: EVQVVESGGGLVQPGRSMKLSCAALGFTFRDYYMAWVRQTPTKGLEWVAAISTGGGNTYYRDSVKGRFTISRDNAKSTLYLQMDSLRSDDTATYYCARNPYGNYFDYWGQGVMVTVSS
VL: QFVLSQPNSVSTNLGSTVKLSCKRSTGNIGSNYVHWYQRHEGRSPTTLIYRDDKRPNGVPDRFSGSIDRSSNSALLTINNVQTEDEADYFCQSYSGGMYLFGGGTKLTVL
[1]
  binding ratio vs native type: < 0.5 ratio
[2]
  binding ratio vs native type: < 0.5 ratio

B2: 93-1310F (antibody, IgG2b, V domains shown)
VH: EVQLVETGGGLVQPGSSLKLSCATSGFTFSDTWMSWVRQAPGKGLEWVALIKDKNSNYEANYAESVKGRFTISRDDSKRRVYLQMFTLRDQDTATYYCTSHEDFYYYSSYYFDYWGHGVMVTVSS
VL: DIVLTQSPATLSVTPGESVSLSCRASQGISTSIHWYQQKSNGSPRLLIKYASQSISGIPSRFSGSGSGTDFTLRINRVESEDFSVYYCQQTYSLPLTFGSGTRLEIKR
[3]
  binding ratio vs native type: < 0.5 ratio

B3: 96-1403F (antibody, IgG2b, V domains shown)
VH: B2 VH with Q13R, Y58S, V66I, R79S, F86N, S100R, S109G, H117Q
VL: B2 VL with A9P, K39R, G42E, S56A, T72I, R74S, S100P, R103K, I106V
[3]
  binding ratio vs native type: < 0.5 ratio

B4: 65-0810G (antibody, IgG2b, V domains shown)
VH: EVHLVESGGGLVQPGRSMKLSCTASGFTFNNYYMAWVRQAPTKGLEWVASISTGGGYTYYRDSVKGRFTISRDNTGNTLYLQMDSLRSEDTATYYCARCWELPYWGQGVMVTVSS
VL: QFVLTQPNSVSTNLGSTVKLSCRRSSGNIGNNYVNWYRQHEGRSPTTMIYRDDTRPDGVPNRFSGSIDRSSNSALLTINNVRPEDEAYYFCQSYSGSIYIFGGGTKLTVL
[4]
  binding ratio vs native type: < 0.5 ratio
[1]
  binding ratio vs native type: < 0.5 ratio
[5]
  binding ratio vs native type: < 0.5 ratio
